Experimental data published in paper PMC10364586 (Protein Science : A Publication of the Protein Society, 2023).
Values joined by “and” are separate entries in the source; they are usually repeats but may differ in a detail not shown here. Identical values can stand only once.

Key:
[1] = target: T1, PADI4 (peptidyl-arginine deiminase 4), recombinant, dimeric (human, UniProt Q9UM07 1-663); assay: ITC
[2] = target: T1, PADI4 (peptidyl-arginine deiminase 4), …; assay: other fluorescence titration

T1 sequence (Q9UM07 whole entry): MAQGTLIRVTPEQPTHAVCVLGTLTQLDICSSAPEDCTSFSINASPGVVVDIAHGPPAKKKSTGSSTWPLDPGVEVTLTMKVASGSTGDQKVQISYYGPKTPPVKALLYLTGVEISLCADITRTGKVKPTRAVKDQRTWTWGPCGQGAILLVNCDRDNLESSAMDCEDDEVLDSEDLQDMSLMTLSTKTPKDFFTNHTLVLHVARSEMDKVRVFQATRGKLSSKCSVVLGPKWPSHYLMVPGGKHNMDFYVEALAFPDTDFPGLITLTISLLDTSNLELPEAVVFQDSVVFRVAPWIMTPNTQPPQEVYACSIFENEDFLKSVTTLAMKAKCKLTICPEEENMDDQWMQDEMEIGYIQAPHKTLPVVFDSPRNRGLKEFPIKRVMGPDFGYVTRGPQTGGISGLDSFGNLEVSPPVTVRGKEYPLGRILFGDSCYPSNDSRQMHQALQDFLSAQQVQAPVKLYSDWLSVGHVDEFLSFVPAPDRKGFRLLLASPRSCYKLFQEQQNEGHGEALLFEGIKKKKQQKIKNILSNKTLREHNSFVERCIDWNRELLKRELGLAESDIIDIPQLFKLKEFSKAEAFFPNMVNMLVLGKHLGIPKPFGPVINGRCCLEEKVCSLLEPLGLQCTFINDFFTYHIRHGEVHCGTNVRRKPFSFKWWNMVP

Kd [1]: 1 ± 0.2 µM | Kd [2]: 5 µM and ~6 µM
B1: His-tagged N-MDM2 (N-terminal region of MDM2, residues 6-125 of the intact protein) (domain or fragment, UniProt Q00987 6-125, looked up)
chain: MSVPTDGAVTTSQIPASEQETLVRPKPLLLKLLKSVGAQKDTYTMKEVLFYLGQYIMTKRLYDEKQQHIVYCSNDLLGDLFGVPSFSVKEHRKIYTMIYRNLVVVNQQESSDSGTSVSEN
modifications: 15N-labelled in the NMR experiment only
